Experimental data published in the RNAGym collection of RNA variant scans (doi:10.7554/elife.80360).

B1: HDV Ribozyme (parent)
chain: GGCCGGCAUGGUCCCAGCCUCCUCGCUGGCGCCGGCUGGGCAACAUUCCGAGGGGACCGUCCCCUCGGUAAUGGCGAAUGGGACCCA

Variants of: B1
Experiment: self-cleavage, relative activity (ratio to wild type); higher = more cleavage; co-transcriptional

First: A45C A71G
Second: A45C A71U
The self-cleavage of the first is higher: 1.11 for the first, 1.09 for the second.

Compared with C44G G80C, A45C G81U is higher in self-cleavage: 0.0405 for the first, 0.262 for the second.

Compared with A45C G81A, C44G G76C is higher in self-cleavage: 0.0959 for the first, 0.511 for the second.

Going from C44G G76U to C44G G76A, the self-cleavage falls from 1.03 to 0.8.

First: C44U G55A
Second: C44U G55C
The self-cleavage of the first is lower: 0.831 for the first, 0.882 for the second.

Compared with C44U U79C, C44U U79A is higher in self-cleavage: 0.269 for the first, 0.688 for the second.

Compared with C44U U69G, C44U A83G is lower in self-cleavage: 0.957 for the first, 0.48 for the second.

First: C44U A83U
Second: C44U C63A
The self-cleavage of the first is lower: 0.208 for the first, 0.819 for the second.

Compared with C44U C63G, C44G C85U is higher in self-cleavage: 0.594 for the first, 0.892 for the second.

Going from C44G C85A to C44G C85G, the self-cleavage rises from 0.525 to 0.831.

Going from C44G G81A to C44G G81U, the self-cleavage falls from 0.277 to 0.271.

First: C44G G59C
Second: C44G G59U
The self-cleavage of the first is higher: 0.95 for the first, 0.81 for the second.

First: C44U
Second: C44U G76U
The self-cleavage of the first is lower: 0.803 for the first, 0.847 for the second.

Going from A45C G74U to C44U G80C, the self-cleavage falls from 0.369 to 0.242.

Going from C44U G50A to C44U G50C, the self-cleavage falls from 0.855 to 0.437.

First: C44U G50U
Second: C44U U72G
The self-cleavage of the first is higher: 0.772 for the first, 0.665 for the second.

Going from C44G G53U to A45C G55C, the self-cleavage falls from 0.939 to 0.48.

First: C44U C66U
Second: A45C U46G
The self-cleavage of the first is higher: 0.817 for the first, 0.554 for the second.

Going from A45C U46C to C44G C64G, the self-cleavage rises from 0.403 to 0.678.

Compared with C44U A51U, C44U A51C is higher in self-cleavage: 0.789 for the first, 0.931 for the second.

Going from C44U A51G to C44U G67A, the self-cleavage falls from 1.04 to 0.82.

First: C44G C86A
Second: C44G C86G
The self-cleavage of the first is higher: 0.767 for the first, 0.499 for the second.

First: A45C C49U
Second: A45C C49G
The self-cleavage of the first is higher: 0.831 for the first, 0.492 for the second.

Going from C44U U60G to C44G C66A, the self-cleavage rises from 0.686 to 0.692.

First: C44U A45C
Second: C44G G68U
The self-cleavage of the first is higher: 0.739 for the first, 0.399 for the second.

First: C44G G68A
Second: A45C C84G
The self-cleavage of the first is higher: 0.677 for the first, 0.297 for the second.

Going from A45C C84A to A45C C84U, the self-cleavage falls from 0.655 to 0.499.

First: A45C G52C
Second: A45C G52U
The self-cleavage of the first is higher: 0.752 for the first, 0.697 for the second.

Going from A45C G52A to C44U A87U, the self-cleavage rises from 0.684 to 0.718.

Compared with C44U G82C, C44U G73C is higher in self-cleavage: 0.0723 for the first, 0.47 for the second.

Compared with C44U G73U, C44U C62A is higher in self-cleavage: 0.172 for the first, 0.665 for the second.

Going from A45C A87U to A45C C57A, the self-cleavage falls from 0.531 to 0.504.

Compared with A45C C57U, A45C C86G is lower in self-cleavage: 0.73 for the first, 0.465 for the second.

First: A45C C86A
Second: C44G G67A
The self-cleavage of the first is higher: 0.95 for the first, 0.65 for the second.

Going from C44G G67U to A45C G50A, the self-cleavage rises from 0.68 to 0.785.

Going from A45C G50U to A45C G67U, the self-cleavage rises from 0.494 to 0.604.

Going from C44G G54U to A45C C64A, the self-cleavage falls from 0.609 to 0.426.

Going from A45C C64U to A45C, the self-cleavage falls from 0.73 to 0.702.

First: C44U G68U
Second: C44U G68A
The self-cleavage of the first is lower: 0.607 for the first, 0.681 for the second.

Going from C44U G68C to A45C G73C, the self-cleavage falls from 0.529 to 0.424.

First: C44U G59C
Second: C44G U65A
The self-cleavage of the first is higher: 0.997 for the first, 0.443 for the second.

First: C44U C58A
Second: A45C U60A
The self-cleavage of the first is higher: 1.07 for the first, 0.883 for the second.

First: C44U U46G
Second: C44U U46C
The self-cleavage of the first is higher: 0.712 for the first, 0.571 for the second.

Going from C44U G81C to C44U G81U, the self-cleavage rises from 0.0923 to 0.212.

First: C44U A71G
Second: C44U A71C
The self-cleavage of the first is higher: 0.95 for the first, 0.851 for the second.

First: C44U A71U
Second: C44G U47A
The self-cleavage of the first is higher: 0.972 for the first, 0.653 for the second.

Going from C44G U47C to C44G U47G, the self-cleavage falls from 0.554 to 0.475.

Going from C44U U65C to C44U U65A, the self-cleavage rises from 0.61 to 0.846.

Compared with C44G U72A, C44G U72G is higher in self-cleavage: 0.229 for the first, 0.446 for the second.

Going from C44G G74U to C44G G74A, the self-cleavage rises from 0.318 to 0.523.

Compared with A45C U47A, C44U G74A is lower in self-cleavage: 0.911 for the first, 0.427 for the second.

First: C44U G74C
Second: C44U G74U
The self-cleavage of the first is lower: 0.233 for the first, 0.67 for the second.

Compared with C44U G54A, A45C C85A is lower in self-cleavage: 0.872 for the first, 0.437 for the second.

Compared with A45C C85U, C44U C61G is higher in self-cleavage: 0.437 for the first, 0.786 for the second.

First: C44U A70C
Second: C44U C86A
The self-cleavage of the first is higher: 0.831 for the first, 0.716 for the second.

First: C44U C86U
Second: C44G U60A
The self-cleavage of the first is higher: 0.886 for the first, 0.798 for the second.

Going from C44G U60G to C44G U60C, the self-cleavage falls from 0.76 to 0.569.

Going from A45C C66U to A45C C66A, the self-cleavage falls from 0.8 to 0.684.

Compared with C44U A77U, C44G G82A is higher in self-cleavage: 0.111 for the first, 0.309 for the second.

Compared with C44G G82C, C44G G52C is higher in self-cleavage: 0.0504 for the first, 0.724 for the second.

First: A45C G54C
Second: A45C G54U
The self-cleavage of the first is lower: 0.653 for the first, 0.95 for the second.

Compared with C44G U69G, C44G U46C is higher in self-cleavage: 0.443 for the first, 0.748 for the second.

Going from C44G U46G to C44U C64A, the self-cleavage falls from 0.609 to 0.408.

First: C44U C64U
Second: A45C A77C
The self-cleavage of the first is higher: 0.876 for the first, 0.277 for the second.

First: C44U G52A
Second: C44U G52C
The self-cleavage of the first is higher: 0.831 for the first, 0.806 for the second.

Going from A45C C75U to A45C C75A, the self-cleavage falls from 0.201 to 0.

Compared with A45C C75G, A45C A51C is higher in self-cleavage: 0.237 for the first, 0.875 for the second.

Going from C44U C48G to A45C A56U, the self-cleavage rises from 0.567 to 0.629.

First: C44G C63U
Second: C44G C63A
The self-cleavage of the first is higher: 0.81 for the first, 0.491 for the second.

Going from C44U C57G to C44U C57U, the self-cleavage rises from 0.612 to 0.704.

Going from A45C G76A to A45C G76C, the self-cleavage falls from 0.869 to 0.68.

First: C44U A78U
Second: C44G C75G
The self-cleavage of the first is lower: 0.148 for the first, 0.256 for the second.

First: C44G C75U
Second: C44G C84A
The self-cleavage of the first is lower: 0.0627 for the first, 0.394 for the second.

First: C44G C84U
Second: C44G C84G
The self-cleavage of the first is higher: 0.53 for the first, 0.375 for the second.

Going from A45C G53U to A45C G53A, the self-cleavage falls from 0.712 to 0.564.

First: A45C C58G
Second: A45C A78G
The self-cleavage of the first is higher: 0.724 for the first, 0.178 for the second.

First: A45C A78U
Second: A45C G82U
The self-cleavage of the first is lower: 0.229 for the first, 0.397 for the second.

Compared with A45C G82C, A45C G68A is higher in self-cleavage: 0.256 for the first, 0.686 for the second.

First: A45C G68C
Second: C44G U79C
The self-cleavage of the first is higher: 0.404 for the first, 0.297 for the second.

Compared with C44U C84G, C44G G73A is higher in self-cleavage: 0.404 for the first, 0.522 for the second.

Going from A45C G59A to A45C G59C, the self-cleavage falls from 0.704 to 0.696.

Compared with C44G G55C, C44G G55U is lower in self-cleavage: 0.898 for the first, 0.65 for the second.

Going from C44U C49U to C44U C49G, the self-cleavage falls from 0.96 to 0.935.

C44U C49A showed a self-cleavage of 0.892.
